Experiments:
[1] = system: IC9LC11 non-small cell lung cancer patient-derived xenograft; assay: Antitumor activity in IC9LC11 non-small cell lung cancer patient-derived xenograft model; format: in vivo, immunodeficient female mice; conditions: 5 mg/kg; control group end day, D28
[2] = biological target: T1, Endo180 on cells (Endo180-expressing HT1080-WT cells; Endo180-transfected HEK293-Endo180 cells) (UniProt Q9UBG0 31-1479); assay: flow cytometry on HT1080-WT cells
T1 construct: whole, on cells; One molecule is used for the endogenous protein on HT1080-WT and the transfected protein on HEK293-Endo180; also called uPARAP
T1 sequence (looked up): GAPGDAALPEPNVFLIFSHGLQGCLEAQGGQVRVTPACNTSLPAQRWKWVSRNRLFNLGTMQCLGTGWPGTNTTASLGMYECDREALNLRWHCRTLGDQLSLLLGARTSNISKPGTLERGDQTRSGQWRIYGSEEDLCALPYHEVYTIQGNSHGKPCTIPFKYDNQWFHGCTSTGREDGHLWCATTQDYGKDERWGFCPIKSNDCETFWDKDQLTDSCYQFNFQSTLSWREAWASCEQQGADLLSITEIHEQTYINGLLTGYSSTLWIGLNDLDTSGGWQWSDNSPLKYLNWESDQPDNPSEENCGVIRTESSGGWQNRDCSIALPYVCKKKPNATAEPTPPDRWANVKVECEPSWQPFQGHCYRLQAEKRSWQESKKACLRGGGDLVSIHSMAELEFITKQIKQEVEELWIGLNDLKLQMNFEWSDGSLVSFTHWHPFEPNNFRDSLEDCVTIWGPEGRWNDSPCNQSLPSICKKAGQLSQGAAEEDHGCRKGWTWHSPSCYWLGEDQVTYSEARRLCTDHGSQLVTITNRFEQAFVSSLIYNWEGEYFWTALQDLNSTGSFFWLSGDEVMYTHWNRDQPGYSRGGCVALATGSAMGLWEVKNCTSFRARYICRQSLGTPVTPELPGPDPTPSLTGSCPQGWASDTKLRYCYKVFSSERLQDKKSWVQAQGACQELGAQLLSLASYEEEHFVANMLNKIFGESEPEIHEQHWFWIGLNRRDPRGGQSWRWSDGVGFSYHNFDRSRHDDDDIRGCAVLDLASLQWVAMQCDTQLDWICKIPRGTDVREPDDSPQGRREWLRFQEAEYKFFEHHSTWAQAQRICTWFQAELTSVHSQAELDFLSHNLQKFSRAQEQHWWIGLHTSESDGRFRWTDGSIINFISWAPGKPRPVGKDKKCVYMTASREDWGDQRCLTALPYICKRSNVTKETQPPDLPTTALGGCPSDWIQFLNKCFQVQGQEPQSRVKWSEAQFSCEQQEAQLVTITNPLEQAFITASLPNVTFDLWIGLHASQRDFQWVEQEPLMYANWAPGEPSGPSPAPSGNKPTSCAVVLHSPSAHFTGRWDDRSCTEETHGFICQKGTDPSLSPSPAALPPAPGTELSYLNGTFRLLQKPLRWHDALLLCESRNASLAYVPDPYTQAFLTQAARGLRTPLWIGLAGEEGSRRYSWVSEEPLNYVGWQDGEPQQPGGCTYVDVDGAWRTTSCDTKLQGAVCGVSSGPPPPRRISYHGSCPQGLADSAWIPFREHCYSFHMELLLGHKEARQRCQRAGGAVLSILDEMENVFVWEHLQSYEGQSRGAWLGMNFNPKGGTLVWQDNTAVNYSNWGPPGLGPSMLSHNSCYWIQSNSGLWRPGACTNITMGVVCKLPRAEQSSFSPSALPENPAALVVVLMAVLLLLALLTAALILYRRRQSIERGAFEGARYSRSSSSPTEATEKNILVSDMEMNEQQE

[3] = biological target: T2, human Endo180-moFc domains I-III (aa 31-370) (human, UniProt Q9UBG0 31-370); assay: ELISA, immobilized human Endo180-mouse Fc DI-III
T2 construct: also called huEndo180 (DI-III); huEndo180-moFc DI-III; not shown: murine Fc domain
T2 sequence: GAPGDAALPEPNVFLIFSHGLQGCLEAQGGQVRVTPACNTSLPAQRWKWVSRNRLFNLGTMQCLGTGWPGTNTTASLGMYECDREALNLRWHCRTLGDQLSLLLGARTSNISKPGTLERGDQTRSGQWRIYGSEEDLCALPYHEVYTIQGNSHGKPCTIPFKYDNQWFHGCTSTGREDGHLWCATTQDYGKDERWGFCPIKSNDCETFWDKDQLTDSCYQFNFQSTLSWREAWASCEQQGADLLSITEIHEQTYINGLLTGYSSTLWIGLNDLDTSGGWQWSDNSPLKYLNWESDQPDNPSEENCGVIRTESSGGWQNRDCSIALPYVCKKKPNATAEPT

[4] = biological target: T3, human Endo180-moFc domains I-IV (aa 31-513) (human, UniProt Q9UBG0 31-513); assay: ELISA, immobilized human Endo180-mouse Fc DI-IV
T3 construct: also called huEndo180 (DI-IV); huEndo180-moFc DI-IV; not shown: murine Fc domain
T3 sequence: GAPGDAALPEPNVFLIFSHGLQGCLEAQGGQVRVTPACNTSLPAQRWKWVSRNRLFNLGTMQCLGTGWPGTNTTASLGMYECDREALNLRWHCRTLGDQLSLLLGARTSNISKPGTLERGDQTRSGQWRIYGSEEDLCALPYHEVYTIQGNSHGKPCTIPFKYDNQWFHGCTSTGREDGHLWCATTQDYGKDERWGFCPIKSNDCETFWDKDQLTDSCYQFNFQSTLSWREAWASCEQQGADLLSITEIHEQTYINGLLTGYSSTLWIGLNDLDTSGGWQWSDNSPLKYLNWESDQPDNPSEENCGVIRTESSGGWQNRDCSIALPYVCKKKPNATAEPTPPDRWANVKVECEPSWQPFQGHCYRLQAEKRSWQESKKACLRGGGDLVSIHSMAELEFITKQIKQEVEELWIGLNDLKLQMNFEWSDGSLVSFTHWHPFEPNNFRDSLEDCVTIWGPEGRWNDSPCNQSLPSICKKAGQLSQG

[5] = biological target: T1, Endo180 on cells (Endo180-expressing …); assay: flow cytometry on HEK293-Endo180 cells

Molecule: CC(=O)O[C@@]12CO[C@@H]1C[C@H](O)[C@@]1(C)C(=O)[C@H](O)C3=C(C)[C@@H](OC(=O)[C@H](O)[C@@H](NC(=O)OC(C)(C)C)c4ccccc4)C[C@@](O)([C@@H](OC(=O)c4ccccc4)[C@H]21)C3(C)C [Docetaxel]
- TGI [1]: 73%
- tolerability based on body weight data and clinical observations (mouse, in vivo): well tolerated, except in one mouse
- relative weight loss (one mouse, at the group end day): 16.0%

B1: IgG G7V Δab (antibody, V domains shown)
VH: EVQLVESGGGLVKPGGSLRLSCAASGFTFSSYSMNWVRQAPGKGLEWVANIKPDGSERHSVDSVKGRFTISRDNSKNSLYLQMNSLRAEDTAVYYCARPGAGRLDYWGQGTLVTVSS
VL: SSELTQDPAVSVALGQTVRITCQGDSLRSYYASWYQQKPGQAPVLVVYGKNNRPSGIPDRFSGSSSGNTASLTITGAQAEDEADYYCNSRDSSGNPWAFGGGTKVTVL
notes: also called IgG G7V with a silent Fc
- EC50 [2]: 3.7 nM
- EC50 [3]: 0.45 nM
- EC50 [4]: 0.53 nM

B2: OMTX707 antibody-drug conjugate (antibody, human IgG1, lambda, V domains shown)
VH: B1 VH
VL: SSELTQDPAVSVALGQTVRITCQGDSLRSYYASWYQQKPGQAPVLVVYGKNNRPSGIPDRFSGSSSGNTASLTITGAQAEDEADYYCNSRDSSGNPWAFGGGTKVTVLG
modifications: drug-linker TAM558 on cysteine residues, non-site directed (sites not given); drug-linker TAM558 (cytolysin-linker maleimide caproyl vcPABA) on cysteine residues, non-site directed, DAR 3.79
notes: antibody-drug conjugate; also called OMTX707 ADC
- EC50 [5]: 1.3 nM

B3: OMTX807 ADC (antibody-drug conjugate) (antibody, human IgG1, lambda, V domains shown)
VH: B1 VH
VL: B2 VL
modifications: drug-linker GGFG-DXd on cysteine residues, non-specific site (sites not given); drug-linker GGFG-DXd on cysteine residues, non-specific site, DAR 8.05
notes: antibody-drug conjugate
- EC50 [5]: 0.7 nM
